Laboratory results reported in the nanobody polyreactivity screen of Harvey et al. (2022).

assay: yeast display, Sf9 membrane polyspecificity reagent, FACS + sequencing; frameworks hold sequencing errors
How it was run: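 Galactose induction of a Saccharomyces cerevisiae BJ5465 synthetic nanobody display library ran 36–48 hours. The cells were then stained for 1 hour at 4 °C with 10% biotinylated, detergent-solubilized Sf9 membrane reagent, pulled down on streptavidin microbeads and FACS-sorted into low and high (top ~1%) gates on expression and reagent-binding fluorescence. Labels for polyreactivity follow the gate of origin.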

Sequence	polyreactivity (PSR sort gate)
QVQLVESGGGLVQAGGSLRLSCAASGSIFRNYAMGWYRQAPGKERELVAAISRSGSSTFYADSVKGRFTISRDNAKNTVYLQMNSLKPEDTAVYYCAAVDYYTLTGYRYYWGQGTQVTVSS	high polyreactivity
QVQLVESGGGLVQSGGSLRLSCAASGSIFYTNAMGWYRQAPGKERELVAAISYGGTTTYADSVKGRFTISRDNAKNTVYLQMNSQKPEDTAVYYCNADWLYYGYWGYGHIWYDYWGQGTQVTVSS	low polyreactivity
QDQLVDSGGGLVQAGGSLRLSCAASGYIFDRYAMGWYRQEPGKERELVAAISGRGGSTYYADSVKGRFTISRDNAKNTVYLQMYSLKREDTAVYYCARDVYVRNGQRARFDSWGQGTQVTVSS	high polyreactivity
QVQLVESGGRLVQAGGSLRLSCASSGSTFVYYAMGWYRPAPGKERELVAVISDDGGTYYADSVKGRFTISRDNAKNTVYLQMNSLKPEDTAVYYCAIDYYGGAYYWYNDRSGDYWGQGTQVTVSS	low polyreactivity
QVQIVESGGGLVQAGGSLRLSCDASGSIFYSNAIGWYRQAPGKERELVASIRGSGVSTYYADSVKGRFTISRDNAKNTVYLQMNSLKPEDTAVYYCAARYVRSYFGFYYWGQGTQVTVSS	high polyreactivity
QDQLVETAGGLVQAGVTHTLSCAASAFTFRNYAMGWYRQAPGKESEFVAAISRRGGSTYYADSVKGRFTISRDNAKNTVYLQLNCLKPEDTAVYYCATEPGKQNTYRMDYWGQGTQVTVSS	high polyreactivity
QVQLVESGGGLVQAGGSLRLSCAASGSIFRGNAMGWYIQAPGKERELVAGINRAGSTKYADSVKGRFTISRDNAKNTVYLQMNSLKPEDTAVYYCAAVRYVRCLWSDYWGQGTKVTVSS	high polyreactivity
QVQLVESGGGIVKAAGSLRLSCAASGSTFKKYAMGWDRQAPRKERELVASISSGGGTYYADSVKGRFTISRDNAKNTVYVQMNSLKPEDTAVYYCAARYHYAKSPYRYYYWGQGTQVTVSS	high polyreactivity
QVQLVESGGGLVQAGGSLRLSCAASGFTFYYYAMGWYRQAPGKERELVAAITSSGGRTYYADSVKGRFTISRDNAKNTVYLQMNSLKPEDTAVYYCAATGFYHRGEYYYWGQGTQVTVSS	low polyreactivity
QVQLVESGGGLVQAGGSLRLSCAASGSTIGFYAMGWYRQAPGKERELVAVISSGDSTYYADSVKGRFTISRDNAKNTVYLQMNSLKPEDTAVYYCAKDALVIDGGGGYDYWGQGTQVTVSS	low polyreactivity
QVQLVESRGGLVQAGGSIRLSCAASGITFGSYAMGWYRQAPGKERELVAAIDTSGDDTYYADSVKGRFTISRDNAKNTVYLQMNSLNPEDTAVYYCNAVSTASDEYDYWGQGTQVTVSS	low polyreactivity
QVQLVESGGGLVQAGGSLRLSCAASGRIFRWYAMGWYRQAPGKERELVATISSSGRTNYADSVKGRFTISRDNAKNTVYLQMNSLKPEDTAVYYCNADGGDWFGYVGMDYWGQGTQVTVSS	high polyreactivity
QVQLVESGGGLVQAGGSLRLSCAASGSIVVKYDMSWYRQAPGKERELVAAISGSGGSTYYADSVKGRFTISRDNAKNTVYLQMNSVKPEDTAVYYCAADDYFYSGRYGFEYWGQGTQVTVSS	low polyreactivity
QVQLVESGGGLVQAGGSLRLSCTASGFTFVYYAMGWYRQAPGKERELVASISRSGGSTYYADSVKGRFTISRDNAKNTVYLQMNSLKPEDTAVYYCNARYGRTALLDYWGQGTQVTVSS	high polyreactivity
QVQLVESGGRLVQAGGSLRLSCAACGGIIWYNTMGWYRQAPGKERELVAAISDSGGRTSYADSVKGRFTISRDNAKNTVYLQMNSLKPEDTAVYYCNVDYVVSRGFIYRVDYWGQGTQVTVSS	low polyreactivity
QVQLVESGAGLVQAGGSLRLSCAASGSNFKWYAMGLYRQAPGKEREFVAAITWSGSGTFYADSVKGRFTISRDNAKKTVYLQMNSLKPEDTAVYYCNKADSYLLYSVTARYFRGFYSWGQVTQVTVSS	high polyreactivity
QVQLVESGGGLVQAGGSLRLSCAASGRIFPTYTMGWYRQAPGKERELVAAIRRGGGRTYYADSVKGRFTISRDNAKNTVYLQMNSLKPEDTAVYYCNKDVYGYSRTGPRGYDYWGQGTQVTVSS	high polyreactivity
QVQLVESGGGLVQAGGSLRLSCAASGRTFPTNAMGWYIQAPGKERELVAVISRNSGRTYYADSVKGRFTISRDNAMNTVYFQMNSLKPEDTAVYYCAADKYTRAYYYWGQGTQVTVSS	high polyreactivity
QVQLVESGGGLVQAGGSLRLSCAASGRTFRVYAMGWYRQAPGKERELVAAINGRGGSTYYADSVKGRFTISRDNAKNTVYFQLNSLKPEDTAVYYCNALARTSWRMDYWGQGTQVTVSS	high polyreactivity
QVQLVESGGGLVQAGGSLRLSCAATGSNFTGNAMVWYRQAPGKERELVAAISRSGGSTYYADSVKGRYTISRDNAKNTVYLQMISLKPEDTAVYYCAAYRTHGPPRAIRFDYWGQGTQVTVSS	high polyreactivity

Sequence	polyreactivity (PSR sort gate)
QVQLVESGGGLVQAGGSLRLSCAASGYIFEDYAMGWYRQAPGKERELVASIDSGSTTNYADSVKGRFTISRDNAKNTVYLQMNSLKPEDTAVYYCAADSYVSPEVRFDYWGQGTQVTVSS	low polyreactivity
QVQLVESGGGLVQAGGSLRLSCAASGRTFYPNAMGWYRQAPGKERELVAAITRSGGRTYYADSVKGRFTISRDNAKNTVYLQMNSLKPEDTAVYYCNADLYYHYYKYEYWGQGTQVTVSS	low polyreactivity
QVQLVESGGGLVQAGGSLRLSCAASGFTFVIYAMGWYRQAPGTERELVATITGSGGSTYYADSVKWRITISRDNAKNTVYLQMNSLKPEDTAVYYCAARRRYQRYSRYDYWGLGTQVTVSS	high polyreactivity
QVQLVESGGGLVQAGGSLRLSCAASGNTFYGYAMGWYSQAPGQERELVASITLSGDSTYYADSVKGRFTISRDNAKNTVYLQMNTLKPEDTAVYYCAGVYTYPLGYYHYTYDYWGQGTQVTVSS	low polyreactivity
QVQLVESGGGLVQAGGSLRLSCAASGSTFTRYAMGWYRPAPGKERELVAAISLSGGDTYYADSVKGRFTISRDNAKNTVYLQMNSLKPEDTAVYYCAARWGYRGYSYEYWGQGTQVTVSS	high polyreactivity
QVQLVESGGGLVQAGGSLRLSCAASGFTLDPYAMGWYRQAPGKERELVAAIRLSGSSTYYADSVKGRFTISRDNAKNTVYLQMNSLKPEDTAVYYCAADGISHWMYRYDYWGQGTQVTVSS	low polyreactivity
QFQLVESGGGLDQARGSLRLTCAASGSIFARNAMGWYRQAPGKERELVAAITYSGGNTYYADSVKGRFTISRDNAKNTVYLQMNSLKPEDTAVYYCNKDWYPTYAAYNYYYWGQGTQVTVSS	high polyreactivity
QVQLVESGGGLVQAGGSLRLSCAATGRTFINYAMGWYRQAPGKERALVAAITTGGRTNYADSVKGRFTISRDNAKNTVYLQMNSLKPEDTAVFYCAADRYYWGRYTLNYWGQGTQVTVSS	low polyreactivity
QVQLVESWGGLVQAGGSLRLSCAASGFIFDNNALGWYRQAPGKERELVADISRSGGSTYADSVKGRFTISRDNAKNTVYFQMNSLKAEDTAVYYCAKDFQGRRPPKEPSAFYYWGQGTQVTVSS	low polyreactivity
QVQLVESGGGLVQAGGSLRLSCAASGNTFVAYTMGWYRPAPGKERELVAAISWRGGTTYYADSVKGRFTISRDNAKNTVYLQMNSLKPEDTAVYYCAARTSYISHGYVTHGLYYWGQGTQVTVSS	high polyreactivity
QVQLVESVGGLVQAGGSLRLSSAASGRILGYYAMGWYRQAPGKERELVAAISRACSTNYADSVKGRFTISRDNAKNTVYLQMNSLKPEDTAVYYCAARPYRRGYNYWGQGSQVTVSS	high polyreactivity
QVQLVESGGGLVQAGGSLRLSCAASGSIFGGYAMGWYRQAPCQDRELVAAISTRGGSTYYADSVKGRFTISRDNAKNTVYLQMNSQKPEDTAVYYCAADYLDSSYGYVYGWDDYWGQGTQVNVSS	low polyreactivity
QVQLVESGGGLVQAGGRLRLSCAASGIIFQYNAMGWYRQAPGKEREFVAAISYGGTSTYYADSVKGRFTISRDNAKNTVYLQMNSLKPEDTAVYYCAADYQGYTPSDGRYYWGQGTQVTVSS	low polyreactivity
QVQLVESGGGLVQAGGSLRLTCAASGRTFRIYAMGWYRQAPGKERELVAAITRRGGSTYYADSVKGRFTISLDNAKNTVNLQMNSLKPEDTAVYYCAAELRYGYLYPYDSWGQGTQVTVSS	high polyreactivity
QVQLVESGGGLVQAGGSLRLSCAASGFTFGYYAMGWYRQAPGKERELVAAITGSGGSTYYADSVKGRFTISRDNAKNTVYLQMNSLKPEDTAVYYCAADKAVYRGSPKNRSPYYYWGQGTQVTVSS	high polyreactivity
QVQLQESGGGLVQAGDSQRLSCAASGNIFRFTDRGWYRQAPGKERELVAAINAGSTTYYADSVKGRFTISRDNAKNTVYLQMNSLKPEDTAVYYCAVYYLGSGTFGYWGQGAQVTVSS	high polyreactivity
QVQLVESGGGLVQAGGSLRLSCAASGRIIQRYAMGWYRQAPGKERELVATITFNTASTYYADSVKGRFTISRDNAQNTVYLQMNSLKPEDTAVYYCAAKHRGGYGYWGQGTQVTVSS	high polyreactivity
QVQLVESGGGLVQAGGSLRLSCAASGGTFSYYAMGWYRQAPGKERELVAAINWSGASTYYADSVKGRFTISRDNAKNTVYLQMNSLKPEDTAVYYCNVYLGILYKYDYWGQGTQVTVSS	low polyreactivity
QVQHVESGGGLVQAGGSLRLSCAASGSNSAYAMGWYRQAPGKERELVAAINSGGSTTYADSVKGRFTISRDNAKNTVYLQMNSLKPEDTAVYSCAARAPSFRYGTSNYPAYRLDYWGQGTQVTVSS	high polyreactivity
QVQLVESGGGLVQAGGSLRLSCAASGSTFDPNVMGWYRQAPGKERELVAAITWSGGSTSYADSVKGRFTISRDNAKNTVYLQMNSLKPEDTAVYYCAADWHSWRWGYYYWGQGTQVTVSS	low polyreactivity
